According to patent US20170224780A1 (priority 2014, published 2017):

Legend:
[1] = tested on: ovaries from 12-day-old neonatal mice; assay: In-vitro culture of whole ovaries incubated with cisplatin with or without AMH, follicle counting; format: cell-based; details: day 4 and day 7 in culture; results not shown
Experimental: Ovaries from 12-day-old neonatal mice were further incubated with a different chemotherapy agent-cisplatin, with or without AMH. Control ovaries were cultured with medium alone or with AMH. Ovaries were removed after day 4 and day 7 in culture and processed for histological analysis. The number of primordial and growing follicles was counted. Primordial follicle count in the presence of AMH and cisplatin is higher than in the presence of cisplatin alone (results not shown).

[2] = tested on: ovaries from 12-day-old neonatal mice; format: cell-based
[3] = tested on: marmoset ovarian cortical tissues (grafts); assay: Xenotransplantation of frozen-thawed marmoset ovarian cortical strips into castrated SCID mice with rAMH treatment (OTCP-TP model); format: in vivo
Description: Five healthy adult female marmoset monkeys (Callithrix jacchus) at the age range of 13 to 23 months were made available for ovaries excision. Fresh bovine ovaries were collected from lactating milking cows, ages 1.5-3 years (n=12). Ovarian human tissues were harvested from eight donors (age range 13-26 years).
Cortical tissue strips were obtained from marmoset (n=15), bovine (n=15) and human (n=46). The cortical tissue was obtained by removal of the underlying stromal tissue. Slow freezing cryopreservation was performed according to previously published protocols. Briefly, tissue fragments were equilibrated with 0.1M sucrose and 1.5M DMSO for 30 minutes following introduction into the cryopreservation device. A multi-gradient slow freezing protocol cooled the samples to −150° C. following by storage in liquid nitrogen (LN).
Prior to transplantation, tissues were thawed rapidly by equilibrating the samples in decreasing DMSO gradient solutions in 0.1M sucrose and cut into 2×3×2 mm pieces (Marmoset, n=29: n=15 for transplantation experiment and n=14 for transplantation+AMH experiment; Bovine, n=37; Human, n=46). Fresh thawed cortex from each experiment was embedded in […] and further studied.
Seven-weeks-old castrated male immunodeficient mice (n=60) were used as recipient animals. Mice were castrated at 4 weeks and maintained at 28° C. under controlled SPF conditions. Xenotransplantation experiments commenced at least 2-weeks post-orchidectomy.
Ovarian tissue transplantation surgical procedures were performed as described previously. Briefly, a longitudinal incision was made in the dorsum of the anesthetized recipient mouse, the skin was lifted and the ovarian cortical strips were inserted subcutaneously. Size of transplanted tissue from all species was 2×3×2 mm. Each graft was attached in place with a 6-0 non-absorbable prolene suture. Transplanted tissues were recovered after three (3) or seven (7) days.
In a separate experiment, frozen marmoset cortical tissues were thawed, 2×3×2 mm cortical strips were prepared (n=14) and transplanted into castrated SCID mice as described above. rAMH, diluted in PBS, was injected (10 μg in 200 μl, per mouse, i.p.) at the time of transplantation and once daily for 3 consecutive days at 10 μg per mouse, while control mice were injected with PBS. Daily injection protocol was determined according to preliminary experiments using labeled rAMH and rAMH dosage was initially determined according to previous studies.
As the first set of experiments indicated maximal follicle activation and PMF loss in all species (in the absence of AMH) at three days post transplantation, the animals were sacrificed three days post transplantation. The grafts were removed and processed for histological follicle counting analysis and immunohistochemistry.
Recovered grafts and control frozen thawed non transplanted samples were fixed in 4% paraformaldehyde, embedded in paraffin and serial 5 μm sections were prepared from the whole grafts for follicle counts and immunohistochemistry. Follicle classification as primordial or growing was performed on every sixth section of Hematoxylin and Eosin stained sections by two independent observers under a light-microscope (slides/graft: 8 for Marmoset, 9 for Bovine, 6 for Human). Only non-atretic follicles with clearly visible oocyte circled by granulosa-cell layers were referred to in results since no significant difference was found in the number of atretic follicles among the groups. […]

B1: rAMH: Anti-mullerian hormone, protein designated by NCBI Accession No. P03971; recombinant AMH (rAMH) (protein, UniProt P03971 452-560, looked up)
Muellerian-inhibiting factor: SAGATAADGPCALRELSVDLRAERSVLIPETYQANNCQGVCGWPQSDRNPRYGNHVVLLLKMQVRGAALARPPCCVPTAYAGKLLISLSEERISAHHVPNMVATECGCR
[1]
  primordial follicle count, AMH and cisplatin vs cisplatin alone: higher
[2]
  numbers of primordial follicles, PM together with AMH relative to PM alone: significantly greater numbers
  primordial or growing follicle numbers, AMH alone vs regular media alone: No difference
  ratio of growing to dormant follicles, PM+AMH vs PM alone: significantly improved
[3]; grafts three days post transplantation, both transplanted groups had a marked increase vs untransplanted control
  collagen levels (Sirius red staining): no effect
[3]; marmoset grafts three days post transplantation, rAMH 10 μg per mouse i.p. at transplantation and once daily for 3 days, transplanted control 7.66±6.99, untransplanted control 148±37.06, p<0.001
  PMF (primordial follicle) count, mean follicle count per section±SE: 56.33±12.12
[3]; marmoset grafts three days post transplantation, rAMH 10 μg per mouse i.p. daily
  additionally saved PMF compared to transplanted control: 86.40%
[3]; transplanted + rAMH group compared to untransplanted control, ratio significantly increased in transplanted control, FIG. 4B
  GF/PMF ratio (growing to primordial follicles): normalized
[3]; transplanted grafts with vs without rAMH administration
  Ki-67 expressing proliferating cells (immunofluorescence, Z-stack reconstruction): Major reduction
